Measurements as given in article PMC3221699.
Read-outs that look alike come from different tables or passages of the source.

Columns and labels:
[1] = target: human IL-10R1 chain coupled to agarose beads (human) (UniProt Q13651)
IL-10R1 (Homo sapiens) [2] = target: IL-10R1 (Homo sapiens) (UniProt Q13651); details: cited from earlier work
[3] = target: Rhesus cytomegalovirus IL-10 (RhCMVIL-10), wild type (rhesus cytomegalovirus (RhCMV) strain 68-1); test: SEC; 24 mL Superdex 200 gel filtration column; elution position of affinity purified RhCMVIL-10 compared with cIL-10; fractions analysed by SDS-PAGE
[4] = target: IL-10R1-FC fusion protein (human IL-10R1 extracellular region fused to mouse IgG2a FC) (human) (UniProt Q13651); test: SPR; Biacore T200, 20 °C, HBS (10 mM Hepes pH 7.4, 0.15 M NaCl, 0.1% P20, 0.1 mg/mL BSA); IL-10R1-FC captured (~75 RU) by anti-murine FC antibody on a CM5 chip; RhCMVIL-10 (0-100 nM) or M1/M2 (100, 500, 1000 nM) injected at 75 µL/min; global fit to a bivalent analyte model (Rmax, and tc for M1, fixed for the mutants); KD2 called apparent
IL-10R1 (Homo sapiens) [5] = target: IL-10R1 (Homo sapiens) (UniProt Q13651); details: cited from earlier work; remark: listed apart in the source

cIL-10, sequence (P22301 19-178): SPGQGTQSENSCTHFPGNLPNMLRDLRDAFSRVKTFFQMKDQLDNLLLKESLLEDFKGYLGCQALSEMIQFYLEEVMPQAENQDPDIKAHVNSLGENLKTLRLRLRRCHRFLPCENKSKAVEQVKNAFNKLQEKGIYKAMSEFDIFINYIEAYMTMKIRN

Row | Substance | KD1 (bivalent analyte model, kd1/ka1) [4] [µM] | KD2 (bivalent analyte model, apparent, kd2/ka1) [4] [nM] | ka1 (bivalent analyte model, first step) [4] [M⁻¹ s⁻¹] | ka2 (bivalent analyte model, second step) [4] | kd1 (bivalent analyte model, first step) [4] [s⁻¹] | kd2 (bivalent analyte model, second step) [4] [s⁻¹] | further results
1 | H6FXa-RhCMVIL-10 Gln-38Arg (ligand) | – | – | – | – | – | – | proliferation of TF-1/IL-10R1 cells, EC50 relative to RhCMVIL-10 and cIL-10; considerable activity retained at 1,000 ng/ml [1]: 100 fold
2 | CMVIL-10 (from UniProt P17150) | – | – | – | – | – | – | Kd (IL-10R1 (Homo sapiens) [2]): 1 nM
3 | Rhesus cytomegalovirus IL-10 (RhCMVIL-10), wild type (ligand) | 0.0651 | 1.3 | 1.18e+06 | 0.00105 1/RUs | 0.0767 | 0.00155 | stoichiometry N [3]: 2; Rm-obs (maximum RU observed at the highest concentration, 100 nM) [4]: 20.9 RU
4 | H6FXa-RhCMVIL-10 Asp-144His (ligand) | – | – | – | – | – | – | proliferation of TF-1/IL-10R1 cells, EC50 relative to RhCMVIL-10 and cIL-10; considerable activity retained at 1,000 ng/ml [1]: 300 fold
5 | cIL-10 (from UniProt P22301) | – | – | – | – | – | – | Kd (IL-10R1 (Homo sapiens) [5]): 1 nM
6 | RhCMVIL-10 mutant 1 (M1; Gln-38Arg, Asp-144His), RhCMVIL-10-FXaH6 (ligand) | 43 | 410 | 4620 | 0.000232 1/RUs | 0.199 | 0.00187 | Rm-obs (maximum RU observed at the highest concentration, 1000 nM) [4]: 0.8 RU
7 | RhCMVIL-10 mutant 2 (M2; Glu-142Gln, Asp-144His), RhCMVIL-10-FXaH6 (ligand) | 14.7 | 94.4 | 14500 | 0.000548 1/RUs | 0.212 | 0.00136 | Rm-obs (maximum RU observed at the highest concentration, 1000 nM) [4]: 3 RU
